Results as given in the Immune Epitope Database (IEDB).

What was measured:
Assay in all cases: IEDB peptide-MHC binding, purified MHC/competitive/radioactivity; filed as Kd, often an IC50 or EC50 that approximates it; ≥ and ≤ were set here for values at or beyond the usual limits of such assays
Details in all cases: source organism: Plasmodium falciparum 3D7
HLA-A*02:03 = molecular target: HLA-A*02:03
HLA-A*02:06 = molecular target: HLA-A*02:06
HLA-A*68:02 = molecular target: HLA-A*68:02
HLA-A*02:02 = molecular target: HLA-A*02:02
HLA-A*02:01 = molecular target: HLA-A*02:01

Sequence	Kd (HLA-A*02:03)	Kd (HLA-A*02:06)	Kd (HLA-A*68:02)	Kd (HLA-A*02:02)	Kd (HLA-A*02:01)
RLFEESLGI	5.5 nM	68 nM	418 nM	1.9 nM	–
FLVFLVFSNV	–	232 nM	5390 nM	212 nM	269 nM
RLPVICSFLV	33 nM	19 nM	9180 nM	2.5 nM	–
NQMIFVSSI	3.6 nM	14 nM	198 nM	21 nM	250 nM
ATYGIIVPV	2.8 nM	5 nM	21 nM	2 nM	3.2 nM
LLNESNIFL	24 nM	143 nM	4480 nM	2.5 nM	43 nM
YQDPQNYEL	441 nM	52 nM	≥ 10000 nM	18 nM	79 nM
VICSFLVFLV	2920 nM	197 nM	1950 nM	415 nM	–
VLFLQMMNV	2.7 nM	9.5 nM	323 nM	1.8 nM	31 nM
NILIVLYYL	8780 nM	1090 nM	≥ 10000 nM	1610 nM	≥ 10000 nM
FMNRFYITT	–	996 nM	6540 nM	18 nM	–
